# Experimental data taken from US20260001953A1 (TWIST BIOSCIENCE, published 2026).
# T1: mouse CD117 (mouse, UniProt P05532)
# T1 construct: antigen of the Carterra SPR kinetics; also called murine CD117
# T1 sequence (receptor, looked up): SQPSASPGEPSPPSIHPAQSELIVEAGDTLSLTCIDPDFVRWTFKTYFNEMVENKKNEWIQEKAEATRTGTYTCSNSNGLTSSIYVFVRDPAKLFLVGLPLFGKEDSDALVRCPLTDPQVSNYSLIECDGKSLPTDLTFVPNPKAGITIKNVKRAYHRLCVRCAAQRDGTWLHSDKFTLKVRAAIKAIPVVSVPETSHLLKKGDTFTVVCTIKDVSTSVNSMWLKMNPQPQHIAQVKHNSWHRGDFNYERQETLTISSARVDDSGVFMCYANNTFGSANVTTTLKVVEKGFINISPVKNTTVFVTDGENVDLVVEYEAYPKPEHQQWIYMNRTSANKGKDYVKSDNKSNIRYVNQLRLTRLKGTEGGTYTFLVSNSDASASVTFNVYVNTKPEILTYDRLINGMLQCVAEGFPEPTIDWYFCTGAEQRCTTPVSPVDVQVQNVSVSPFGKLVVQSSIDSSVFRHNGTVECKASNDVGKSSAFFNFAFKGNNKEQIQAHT
# T2: SIGLEC-5 (limits assumed)
# T2 construct: also called OB-BP-2
# T2 receptor: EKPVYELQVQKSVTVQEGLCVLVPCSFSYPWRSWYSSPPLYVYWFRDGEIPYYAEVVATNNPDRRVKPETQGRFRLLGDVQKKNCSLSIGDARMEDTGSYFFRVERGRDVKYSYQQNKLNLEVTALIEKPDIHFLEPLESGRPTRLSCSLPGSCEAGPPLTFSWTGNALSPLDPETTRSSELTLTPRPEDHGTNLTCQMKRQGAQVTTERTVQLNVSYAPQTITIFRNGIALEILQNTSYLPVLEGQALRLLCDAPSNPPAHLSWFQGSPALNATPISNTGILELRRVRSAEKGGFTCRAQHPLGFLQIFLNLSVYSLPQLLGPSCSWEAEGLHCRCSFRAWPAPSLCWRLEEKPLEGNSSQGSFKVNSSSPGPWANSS
# How the values were obtained:
# [1] = molecular target: CD117-GFP transiently overexpressed in HEK293T cells (UniProt P10721 26-976); test: cell-based or functional assay
# cyno CD117 = molecular target: T3, cyno CD117 (Macaca fascicularis, UniProt A0A7N9CP24); test: Carterra SPR, cyno CD117
# T3 construct: antigen of the Carterra SPR kinetics; also called cynomolgus monkey CD117
# Experimental: (§1) To further evaluate the antibodies discovered during the screens, 21 clones were selected for detailed characterization and were analyzed for target binding kinetics by a Carterra SPR instrument. The binding kinetics of the anti-CD117 antibodies for human CD117, cynomolgus monkey CD117, and murine CD117 are shown in FIG. 29A-29B.
# [2] = molecular target: T4, Cluster of differentiation 117 (CD117), antigen of epitope binning and ELISA (UniProt P10721 26-520, limits assumed); test: Carterra SPR, human CD117
# T4 construct: also called tyrosine-protein kinase KIT; mast/stem cell growth factor receptor (SCFR)
# Experimental: as §1
# mouse CD117 = molecular target: T1, mouse CD117; test: Carterra SPR, mouse CD117
# Experimental: as §1
# [3] = molecular target: T5, CD117 transiently expressed on Expi293 cells (UniProt P10721 26-976, limits assumed); test: FACS, MFI expressing / parental cells
# T5 construct: whole, on cells; Two cassettes are described (P2A mVenus and direct mVenus fusion); also called CD117 transient cells; the transient cell line
# Experimental: (§2) The transient expression of CD117 was validated with a control antibody, Expi293 (FIGS. 17A-17B). Expi293, […], was transiently transfected with CD117 48-hours post-transfection. The secondary antibody used was APC Goat anti-human IgG (diluted 1:400). 100,000 cells per well were blocked with 1×PBS+0.5% BSA for 1 hour, stained with 100 μL of the primary antibody for 1 hour, and stained with the secondary antibody for one hour, all with 3× washes in between each staining.
# [4] = molecular target: T5, CD117 transiently expressed on Expi293 …; test: FACS cell binding, Expi293 transiently expressing CD117
# Experimental: as §2
# [5] = molecular target: T5, CD117 transiently expressed on Expi293 …; test: flow cytometry titration on CD117 transient cells and on parental Expi293
# Experimental: as §2
# [6] = molecular target: T6, Sialic acid-binding immunoglobulin-like lectin 8 (SIGLEC-8), antigen of the Carterra SPR studies (UniProt Q9NYZ4 17-363, limits assumed); test: Carterra SPR
# In short: (§3)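 Binding kinetics of antibodies to SIGLEC-8 were measured by surface plasmon resonance on a Carterra instrument. The antibodies came from synthetic antibody libraries panned over four rounds with a bead-based strategy and screened by clonal ELISA. Selected clones were expressed and purified before testing. The read-outs are rate constants, dissociation constants or results from these kinetic runs.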
# SIGLEC-2 = molecular target: T7, SIGLEC-2; test: SPR cross-reactivity table
# T7 construct: also called CD22
# In short: (§4)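 Purified antibodies against SIGLEC-8, first selected from synthetic libraries by four rounds of bead-based panning, were tested for cross-reactivity with related SIGLEC proteins by surface plasmon resonance on a Carterra instrument. Each protein tested has a dissociation constant or a binding result listed.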
# SIGLEC-3 = molecular target: T8, SIGLEC-3; test: SPR cross-reactivity table
# T8 construct: also called CD33
# In short: as §4
# SIGLEC-5 = molecular target: T2, SIGLEC-5; test: SPR cross-reactivity table
# In short: as §4
# SIGLEC-6 = molecular target: T9, SIGLEC-6; test: SPR cross-reactivity table
# T9 construct: also called OB-BP-1
# In short: as §4
# SIGLEC-7 = molecular target: T10, SIGLEC-7; test: SPR cross-reactivity table
# T10 construct: also called p75/AIRM1
# In short: as §4
# [7] = molecular target: T6, Sialic acid-binding immunoglobulin-like …; test: Carterra SPR kinetics, summary table
# In short: as §3
# [8] = molecular target: T11, SIGLEC-8 transiently expressed on cells (UniProt Q9NYZ4 17-499, limits assumed); test: cell binding titration, transient SIGLEC-8 line
# T11 construct: whole, on cells; Two cassettes are described (P2A mVenus and direct mVenus fusion); also called the transient line; pTT5-SIGLEC-8 P2A mVenus
# [9] = molecular target: T6, Sialic acid-binding immunoglobulin-like …; test: Carterra SPR kinetics, sensorgram panel
# In short: as §3
# [10] = molecular target: T11, SIGLEC-8 transiently expressed on cells; test: flow cytometry titration on cells transiently expressing SIGLEC-8 and on parental Expi293
# T4 sequence (P10721 26-520 limits assumed): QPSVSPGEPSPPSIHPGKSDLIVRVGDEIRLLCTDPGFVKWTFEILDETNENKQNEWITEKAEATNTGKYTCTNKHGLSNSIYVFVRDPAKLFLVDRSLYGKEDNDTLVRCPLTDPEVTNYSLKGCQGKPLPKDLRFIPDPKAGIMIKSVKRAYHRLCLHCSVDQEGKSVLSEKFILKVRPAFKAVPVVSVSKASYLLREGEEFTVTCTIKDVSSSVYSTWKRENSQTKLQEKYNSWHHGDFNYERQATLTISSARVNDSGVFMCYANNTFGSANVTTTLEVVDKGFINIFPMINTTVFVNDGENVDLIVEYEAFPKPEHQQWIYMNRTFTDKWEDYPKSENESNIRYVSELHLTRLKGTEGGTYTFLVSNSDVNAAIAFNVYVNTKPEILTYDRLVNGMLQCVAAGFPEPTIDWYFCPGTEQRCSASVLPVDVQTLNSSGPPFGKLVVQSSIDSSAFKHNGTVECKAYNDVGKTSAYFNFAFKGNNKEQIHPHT
# T5 sequence (P10721 26-976 limits assumed): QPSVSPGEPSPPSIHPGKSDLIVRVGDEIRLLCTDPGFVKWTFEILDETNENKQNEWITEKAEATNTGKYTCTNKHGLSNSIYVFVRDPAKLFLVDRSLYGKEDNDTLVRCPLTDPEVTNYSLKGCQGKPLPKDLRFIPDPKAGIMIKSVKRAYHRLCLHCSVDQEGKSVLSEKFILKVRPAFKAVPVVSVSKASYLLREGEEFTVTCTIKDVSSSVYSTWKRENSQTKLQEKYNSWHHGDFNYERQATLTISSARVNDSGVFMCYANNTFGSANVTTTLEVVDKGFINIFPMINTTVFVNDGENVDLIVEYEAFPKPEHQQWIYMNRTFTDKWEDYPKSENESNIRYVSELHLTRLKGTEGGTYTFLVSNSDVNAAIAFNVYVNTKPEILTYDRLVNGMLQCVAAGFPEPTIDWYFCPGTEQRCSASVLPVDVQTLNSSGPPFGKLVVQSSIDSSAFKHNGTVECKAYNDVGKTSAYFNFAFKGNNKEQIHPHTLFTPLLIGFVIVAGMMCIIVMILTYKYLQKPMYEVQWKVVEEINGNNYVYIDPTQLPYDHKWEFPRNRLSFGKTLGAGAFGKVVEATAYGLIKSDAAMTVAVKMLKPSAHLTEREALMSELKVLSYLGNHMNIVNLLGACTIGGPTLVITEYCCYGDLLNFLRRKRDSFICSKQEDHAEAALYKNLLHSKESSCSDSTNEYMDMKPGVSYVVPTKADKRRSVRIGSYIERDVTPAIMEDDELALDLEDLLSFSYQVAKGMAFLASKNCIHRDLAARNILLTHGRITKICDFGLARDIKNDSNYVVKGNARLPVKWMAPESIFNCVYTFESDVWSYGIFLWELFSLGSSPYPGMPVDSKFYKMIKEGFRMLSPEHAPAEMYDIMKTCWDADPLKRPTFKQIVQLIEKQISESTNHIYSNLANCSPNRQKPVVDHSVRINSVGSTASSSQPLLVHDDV
# T6 sequence (Q9NYZ4 17-363 limits assumed): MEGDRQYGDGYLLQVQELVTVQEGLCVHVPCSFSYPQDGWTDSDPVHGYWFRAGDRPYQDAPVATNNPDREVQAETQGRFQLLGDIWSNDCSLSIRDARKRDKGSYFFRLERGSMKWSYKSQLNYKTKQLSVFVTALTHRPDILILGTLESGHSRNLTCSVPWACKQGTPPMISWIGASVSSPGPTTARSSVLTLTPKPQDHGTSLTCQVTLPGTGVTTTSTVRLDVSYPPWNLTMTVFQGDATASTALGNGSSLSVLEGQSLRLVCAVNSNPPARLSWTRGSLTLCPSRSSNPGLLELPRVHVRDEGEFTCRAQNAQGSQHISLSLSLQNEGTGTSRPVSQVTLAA
# T3 sequence (A0A7N9CP24 entry or part of it): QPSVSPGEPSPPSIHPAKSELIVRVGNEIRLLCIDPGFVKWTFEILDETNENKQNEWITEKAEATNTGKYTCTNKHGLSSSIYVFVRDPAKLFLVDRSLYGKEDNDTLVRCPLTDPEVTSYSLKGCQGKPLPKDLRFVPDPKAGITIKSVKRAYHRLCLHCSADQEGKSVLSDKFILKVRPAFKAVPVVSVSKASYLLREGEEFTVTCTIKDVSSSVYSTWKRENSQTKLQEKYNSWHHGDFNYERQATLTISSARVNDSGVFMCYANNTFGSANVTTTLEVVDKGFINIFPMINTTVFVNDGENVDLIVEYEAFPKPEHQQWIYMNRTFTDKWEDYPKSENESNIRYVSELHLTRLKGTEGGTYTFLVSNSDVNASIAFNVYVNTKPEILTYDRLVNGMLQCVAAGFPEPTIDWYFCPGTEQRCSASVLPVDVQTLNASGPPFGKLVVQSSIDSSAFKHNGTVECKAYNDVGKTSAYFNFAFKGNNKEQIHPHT
# T11 sequence (Q9NYZ4 17-499 limits assumed): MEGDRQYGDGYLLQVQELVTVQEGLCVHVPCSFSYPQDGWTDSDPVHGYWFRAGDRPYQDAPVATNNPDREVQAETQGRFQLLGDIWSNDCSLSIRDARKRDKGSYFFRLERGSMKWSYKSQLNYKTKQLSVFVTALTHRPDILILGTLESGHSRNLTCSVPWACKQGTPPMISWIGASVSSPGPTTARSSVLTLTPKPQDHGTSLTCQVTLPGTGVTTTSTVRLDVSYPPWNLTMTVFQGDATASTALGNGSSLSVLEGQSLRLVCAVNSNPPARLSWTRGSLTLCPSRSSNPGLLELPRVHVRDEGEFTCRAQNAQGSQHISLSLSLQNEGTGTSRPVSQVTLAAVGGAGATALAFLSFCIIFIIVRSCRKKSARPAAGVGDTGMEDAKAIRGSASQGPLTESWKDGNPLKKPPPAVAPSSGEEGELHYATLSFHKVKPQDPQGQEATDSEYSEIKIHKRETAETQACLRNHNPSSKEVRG
# T9 sequence (receptor, as listed by the source limits assumed): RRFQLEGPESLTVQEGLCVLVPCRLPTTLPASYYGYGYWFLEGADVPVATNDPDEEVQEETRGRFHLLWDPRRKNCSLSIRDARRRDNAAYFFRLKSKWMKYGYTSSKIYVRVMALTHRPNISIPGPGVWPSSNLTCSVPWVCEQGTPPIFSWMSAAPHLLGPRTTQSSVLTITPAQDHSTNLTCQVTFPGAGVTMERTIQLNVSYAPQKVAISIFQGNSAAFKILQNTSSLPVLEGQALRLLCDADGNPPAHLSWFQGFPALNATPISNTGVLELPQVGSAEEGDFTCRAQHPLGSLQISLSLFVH
# T8 sequence (receptor, as listed by the source limits assumed): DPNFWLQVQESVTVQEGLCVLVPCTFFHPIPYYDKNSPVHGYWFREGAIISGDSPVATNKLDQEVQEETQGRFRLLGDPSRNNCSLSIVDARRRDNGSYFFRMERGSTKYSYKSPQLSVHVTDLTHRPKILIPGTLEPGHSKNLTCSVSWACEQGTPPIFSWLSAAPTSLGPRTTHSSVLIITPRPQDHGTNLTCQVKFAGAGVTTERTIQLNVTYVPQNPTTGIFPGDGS
# T7 sequence (chain, as listed by the source limits assumed): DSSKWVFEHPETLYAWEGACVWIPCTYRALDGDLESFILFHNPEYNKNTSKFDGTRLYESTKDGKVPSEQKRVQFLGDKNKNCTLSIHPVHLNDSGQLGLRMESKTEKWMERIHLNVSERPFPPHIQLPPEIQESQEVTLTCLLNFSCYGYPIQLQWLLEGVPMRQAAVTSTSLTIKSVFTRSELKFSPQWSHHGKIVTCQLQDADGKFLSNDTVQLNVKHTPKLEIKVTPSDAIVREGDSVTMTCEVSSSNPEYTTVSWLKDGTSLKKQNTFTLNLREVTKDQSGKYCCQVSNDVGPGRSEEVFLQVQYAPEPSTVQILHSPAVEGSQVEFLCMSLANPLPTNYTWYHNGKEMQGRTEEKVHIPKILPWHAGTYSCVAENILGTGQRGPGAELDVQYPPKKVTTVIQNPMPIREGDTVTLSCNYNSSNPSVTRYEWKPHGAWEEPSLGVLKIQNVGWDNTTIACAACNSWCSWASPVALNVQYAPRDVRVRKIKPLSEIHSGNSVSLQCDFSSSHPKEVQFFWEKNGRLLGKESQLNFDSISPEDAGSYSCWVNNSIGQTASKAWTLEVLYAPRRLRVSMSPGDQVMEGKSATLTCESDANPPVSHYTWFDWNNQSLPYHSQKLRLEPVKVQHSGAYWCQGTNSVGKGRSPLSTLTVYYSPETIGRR
# T10 sequence (receptor, as listed by the source limits assumed): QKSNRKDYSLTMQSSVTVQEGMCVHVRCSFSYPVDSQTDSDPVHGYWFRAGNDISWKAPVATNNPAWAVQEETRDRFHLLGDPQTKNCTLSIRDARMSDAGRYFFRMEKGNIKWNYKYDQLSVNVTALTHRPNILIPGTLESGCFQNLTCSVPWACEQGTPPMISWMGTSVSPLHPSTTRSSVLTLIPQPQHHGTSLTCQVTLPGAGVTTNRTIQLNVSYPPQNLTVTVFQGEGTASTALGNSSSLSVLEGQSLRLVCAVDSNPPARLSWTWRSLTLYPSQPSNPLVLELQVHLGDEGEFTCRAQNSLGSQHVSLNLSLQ
Binder,Kd (cyno CD117) [nM],koff (cyno CD117) [s⁻¹],kon (cyno CD117) [M⁻¹ s⁻¹],Kd [2] [nM],koff [2] [s⁻¹],kon [2] [M⁻¹ s⁻¹],MFI Ratio [3],EC50 [4] [nM],Kd [6] [nM],koff [7] [s⁻¹],kon [7] [M⁻¹ s⁻¹],EC50 [8] [nM],binding result (mouse CD117),further results
"CD117-2 (antibody, human IgG1, kappa, V domains shown, detected with anti-human IgG in FACS) VH: EVQLLESGVGLVQPGGSLRLSCAASGFSFGSYAMSWVRQAPGKGLEWVSSISGSGGTTYYADSVKGRFTISRDNSKNTLYLQMNSLRAEDTAVYYCARDPDDYGDYYFDYWGQGTLVTVSS VL: DIQMTQSPSSLSASVGDRVTITCRASQSIGEYLNWYQQKPGKAPKLLIYATSSLQRGVPSRFSGSGSGTDFTLTISSLQPEDFATYYCQQSHTTPYTFGGGTKVEIKR",607,0.201,331000,208,0.136,655000,30.7,0.742,–,–,–,–,–,"IC50, inhibition of the SCF-stimulated SRF reporter signal (FFLuc/RLuc); same row prints log(IC50) -9.344 and Span -0.2266 [1]: 4.53e-10 M; Kd (mouse CD117): 13.7 nM; koff (mouse CD117): 0.00222 s⁻¹; kon (mouse CD117): 161000 M⁻¹ s⁻¹; EC50 (read off the curve) [5]: ~1 nM"
"SIGLEC-8-58 (antibody, human IgG1, kappa, V domains shown, tested as expressed and purified mAb) VH: EVQLLESGGGLVQPGGSLRLSCAASGFTFRTSAMSWVRQAPGKGLEWVSSVSGSGSSTYYADSVKGRFTISRDNSKNTLYLQMNSLRAEDTAVYYCAKEGSYYYYGMDVWGQGTLVTVSS VL: DIQMTQSPSSLSASVGDRVTITCRASQTIGRYLNWYQQKPGKAPKLLIYGASSLYSGVPSRFSGSGSGTDFTLTISSLQPEDFATYYCQQSYKTPVTFGGGTKVEIKR",–,–,–,–,–,–,–,–,0.97,0.000127,131000,0.914,–,binding result (SIGLEC-2): no binding; binding result (SIGLEC-3): no binding; Kd (SIGLEC-5): 169 nM; binding result (SIGLEC-6): no binding; binding result (SIGLEC-7): no binding
"SIGLEC-8-40 (antibody, human IgG1, kappa, V domains shown, tested as expressed and purified mAb; also called SIBLEC8-40) VH: EVQLLESGGGLVQPGGSLRLSCAASGFTFSFFDMMWVRQAPGKGLEWVSQISETGRRTYYADSVKGRFTISRDNSKNTLYLQMNSLRAEDTAVYYCATAEDEQGYDYWGQGTLVTVSS VL: DIQMTQSPSSLSASVGDRVTITCRASQSINFWLRWYQQKPGKAPKLLIYGTTSLESGVPSRFSGSGSGTDFTLTISSLQPEDFATYYCQQTATWPFTFGQGTKVEIKR",–,–,–,–,–,–,–,–,0.0225,1e-05,444000,0.609,–,Kd [9]: < 0.023 nM
"CD117-1 (antibody, human IgG1, kappa, V domains shown, detected with anti-human IgG in FACS) VH: EVQLLESGGGLVQPGGSLRLSCAASGFTLTSYAMSWVRQAPGKGLEWVSTISGSGGYTYYADSVKGRFTISRDNSKNTLYLQMNSLRAEDTAVYYCARDSGYDRGLDYWGQGTLVTVSS VL: DIQMTQSPSSLSASVGDRVTITCRASQSVRTYLNWYQQKPGKAPKLLIYDASTLQSGVPSRFSGSGSGTDFTLTISSLQPEDFATYYCQQSYSSSITFGGGTKVEIKR",508,0.16,315000,189,0.1,530000,26.6,23.8,–,–,–,–,no binding,"IC50, inhibition of the SCF-stimulated SRF reporter signal (FFLuc/RLuc); same row prints log(IC50) -9.366 and Span -0.2174 [1]: 4.31e-10 M"
"CD117-7 (antibody, human IgG1, kappa, V domains shown, detected with anti-human IgG in FACS) VH: EVQLLESGGGLVQPGGSLRLSCAASGFTFSDYAMGWVRQAPGKGLEWVSGIGGSGGSAYYADSVKGRFTISRDNSKNTLYLQMNSLRAEDTAVYYCARGFDSTDGVDYWGQGTLVTVSS VL: DIQMTQSPSSLSASVGDRVTITCRASQSIGNYLNWYQQKPGKAPKLLIYAASDLQTGVPSRFSGSGSGTDFTLTISSLQPEDFATYYCQQGYSTPYTFGGGTKVEIKR",14.2,0.0159,1.12e+06,22,0.0194,882000,21.9,4.01,–,–,–,–,no binding,"IC50, inhibition of the SCF-stimulated SRF reporter signal (FFLuc/RLuc); same row prints log(IC50) -9.451 and Span -0.1049 [1]: 3.54e-10 M"
"CD117-14 (antibody, human IgG1, kappa, V domains shown, detected with anti-human IgG in FACS) VH: EVQLLESGGGLVQPGGSLRLSCAASGFTFSDYAMGWVRQAPGKGLEWVSGIGGSGGSAYYADSVKGRFTISRDNSKNTLYLQMNSLRAEDTAVYYCARGFDSTDGVDYWGQGTLVTVSS VL: DIQMTQSPSSLSASVGDRVTITCQTSQSVSSYLNWYQQKPGKAPKLLIYGASRLESGVPSRFSGSGSGTDFTLTISSLQPEDFATYYCQQSYKTPWTFGGGTKVEIKR",2.34,0.00146,624000,2.53,0.00177,698000,12.2,0.0718,–,–,–,–,no binding,"IC50, inhibition of the SCF-stimulated SRF reporter signal (FFLuc/RLuc); same row prints log(IC50) -9.67 and Span -0.1208 [1]: 2.14e-10 M"
"SIGLEC-8-1 (antibody, human IgG1, kappa, V domains shown, tested as expressed and purified mAb) VH: EVQLLESGGGLVQPGGSLRLSCAASGFTFSNFPMSWVRQAPGKGLEWVSSISGTGSSTYYADSVKGRFTISRDNSKNTLYLQMNSLRAEDTAVYYCVREGRYFYYAMDVWGQGTLVTVSS VL: DIQMTQSPSSLSASVGDRVTITCRASQNIAGYLNWYQQKPGKAPKLLIYAASNLHTGVPSRFSGSGSGTDFTLTISSLQPEDFATYYCQQSYSTPLAFGGGTKVEIKR",–,–,–,–,–,–,–,–,0.292,4.38e-05,150000,1.26,–,Kd (SIGLEC-2): 196 nM; Kd (SIGLEC-3): 135 nM; Kd (SIGLEC-5): 5.8 nM; Kd (SIGLEC-6): 7 nM; Kd (SIGLEC-7): 5240 nM; EC50 (read off the curve) [10]: ~5 nM
"CD117-6 (antibody, human IgG1, kappa, V domains shown, detected with anti-human IgG in FACS) VH: EVQLLESGGGLVQPGGSLRLSCAASGFTFSAYALTWVRQAPGKGLEWVSAISSSGGSTFYADSVKGRFTISRDNSKNTLYLQMNSLRAEDTAVYYCARVSRGYPRRSDSWGQGTLVTVSS VL: DIQMTQSPSSLSASVGDRVTTTCRASQGISTYLNWYQQKPGKAPKLLIYGASRLQGGVPSRFSGSGSGTDFTLTISSLQPEDFATYYCQQGYSFPWTFGGGTKVEIKR",–,–,–,–,–,–,–,0.116,–,–,–,–,–,"IC50, inhibition of the SCF-stimulated SRF reporter signal (FFLuc/RLuc); same row prints log(IC50) -8.147 and Span -0.2026 [1]: 7.13e-09 M"
